Data reported in patent publication US20180282410A1 (Hoffmann-La Roche, published 2018).
Positions count from the first letter of the chain named. Where two headings read alike, the source gives them in different places.

T1: full-length human Robo 4 (on cells) (human, UniProt Q8WZ75 28-1007)
T1 sequence: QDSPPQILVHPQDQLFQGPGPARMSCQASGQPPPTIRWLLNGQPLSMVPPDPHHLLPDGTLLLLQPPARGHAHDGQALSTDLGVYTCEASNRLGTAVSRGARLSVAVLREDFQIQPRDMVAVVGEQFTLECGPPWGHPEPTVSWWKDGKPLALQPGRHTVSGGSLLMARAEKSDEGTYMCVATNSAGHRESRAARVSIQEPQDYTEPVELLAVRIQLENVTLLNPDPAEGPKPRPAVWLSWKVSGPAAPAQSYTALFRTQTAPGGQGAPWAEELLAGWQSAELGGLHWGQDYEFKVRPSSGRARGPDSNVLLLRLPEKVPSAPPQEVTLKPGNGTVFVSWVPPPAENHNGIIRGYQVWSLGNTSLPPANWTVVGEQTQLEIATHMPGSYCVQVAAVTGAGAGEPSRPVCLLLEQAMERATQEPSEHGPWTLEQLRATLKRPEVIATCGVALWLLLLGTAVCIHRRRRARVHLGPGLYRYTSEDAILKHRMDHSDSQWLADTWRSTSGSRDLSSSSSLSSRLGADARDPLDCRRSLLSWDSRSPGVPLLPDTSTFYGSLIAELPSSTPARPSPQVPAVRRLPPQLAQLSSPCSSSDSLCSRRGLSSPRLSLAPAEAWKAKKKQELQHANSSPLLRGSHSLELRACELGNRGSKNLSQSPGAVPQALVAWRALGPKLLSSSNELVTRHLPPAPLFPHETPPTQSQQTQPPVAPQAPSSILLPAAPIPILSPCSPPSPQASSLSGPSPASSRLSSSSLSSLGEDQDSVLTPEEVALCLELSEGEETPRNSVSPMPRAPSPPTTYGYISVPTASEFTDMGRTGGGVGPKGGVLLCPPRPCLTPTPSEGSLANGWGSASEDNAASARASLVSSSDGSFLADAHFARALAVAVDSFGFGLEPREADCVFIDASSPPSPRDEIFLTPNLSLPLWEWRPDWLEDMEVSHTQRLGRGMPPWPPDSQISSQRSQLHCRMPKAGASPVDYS

T2: mouse Robo 4 on MS-1 mouse endothelial cells (mouse, UniProt Q8C310 28-1012)
T2 sequence: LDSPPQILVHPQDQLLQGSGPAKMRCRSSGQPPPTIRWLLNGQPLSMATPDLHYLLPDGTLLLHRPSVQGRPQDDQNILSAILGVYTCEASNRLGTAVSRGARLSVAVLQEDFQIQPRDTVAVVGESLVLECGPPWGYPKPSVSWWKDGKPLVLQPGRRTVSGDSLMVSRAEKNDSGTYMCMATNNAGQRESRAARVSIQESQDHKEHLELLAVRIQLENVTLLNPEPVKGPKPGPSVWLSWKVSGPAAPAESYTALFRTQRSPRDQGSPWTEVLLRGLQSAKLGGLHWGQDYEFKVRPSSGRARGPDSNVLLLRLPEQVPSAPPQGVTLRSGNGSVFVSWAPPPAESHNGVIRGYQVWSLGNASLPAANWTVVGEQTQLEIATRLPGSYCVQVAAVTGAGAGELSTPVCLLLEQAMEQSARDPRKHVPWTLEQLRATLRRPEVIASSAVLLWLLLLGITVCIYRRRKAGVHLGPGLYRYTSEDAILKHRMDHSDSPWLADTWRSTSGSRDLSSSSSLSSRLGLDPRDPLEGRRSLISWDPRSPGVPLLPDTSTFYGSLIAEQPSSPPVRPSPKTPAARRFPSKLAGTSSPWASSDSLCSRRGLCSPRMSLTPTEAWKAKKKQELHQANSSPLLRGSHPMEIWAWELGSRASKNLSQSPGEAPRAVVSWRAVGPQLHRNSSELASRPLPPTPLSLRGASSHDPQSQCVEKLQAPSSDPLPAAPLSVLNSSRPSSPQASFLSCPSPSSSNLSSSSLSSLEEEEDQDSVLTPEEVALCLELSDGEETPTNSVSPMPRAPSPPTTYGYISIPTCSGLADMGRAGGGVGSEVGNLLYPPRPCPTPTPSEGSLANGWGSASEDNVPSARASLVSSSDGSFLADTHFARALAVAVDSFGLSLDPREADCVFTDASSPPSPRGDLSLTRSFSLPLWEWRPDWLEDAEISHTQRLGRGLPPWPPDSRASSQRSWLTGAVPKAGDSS

B1: Molecule L, 2+1 Fab-Fab-CrossFab (VH/VL exchange in CD3 binder, CD3 binder V9, Robo 4 binders 01F05) (bispecific antibody)
chain 1: QVQLKQSGAELVKPGASVKISCKTSVYTFTYGYMHWVEQKPGQGLEWIGRIDPDSGNSMYNQKFQGRATLTRDKSSSTVYMELRSLTSEDSAVYYCARSMRYSGYRDYALDLWGQGTQVTVSSASTKGPSVFPLAPSSKSTSGGTAALGCLVKDYFPEPVTVSWNSGALTSGVHTFPAVLQSSGLYSLSSVVTVPSSSLGTQTYICNVNHKPSNTKVDKKVEPKSCDGGGGSGGGGSQVQLKQSGAELVKPGASVKISCKTSVYTFTYGYMHWVEQKPGQGLEWIGRIDPDSGNSMYNQKFQGRATLTRDKSSSTVYMELRSLTSEDSAVYYCARSMRYSGYRDYALDLWGQGTQVTVSSASTKGPSVFPLAPSSKSTSGGTAALGCLVKDYFPEPVTVSWNSGALTSGVHTFPAVLQSSGLYSLSSVVTVPSSSLGTQTYICNVNHKPSNTKVDKKVEPKSCDGGGGSGGGGSDIQMTQSPSSLSASVGDRVTITCRASQDIRNYLNWYQQKPGKAPKLLIYYTSRLESGVPSRFSGSGSGTDYTLTISSLQPEDFATYYCQQGNTLPWTFGQGTKVEIKSSASTKGPSVFPLAPSSKSTSGGTAALGCLVKDYFPEPVTVSWNSGALTSGVHTFPAVLQSSGLYSLSSVVTVPSSSLGTQTYICNVNHKPSNTKVDKKVEPKSC
chain 2: QLVLTQSPSASASLGASVKLTCTLSSQHSSYGITWLQQHPDKAPKYVMYLKSDGSHTKGADIPDRFSGSSSGVHRYLSISNVQPEDEAIYFCVTYDSTHVFGSGTQLTVLGQPKAAPSVTLFPPSSEELQANKATLVCLISDFYPGAVTVAWKADSSPVKAGVETTTPSKQSNNKYAASSYLSLTPEQWKSHRSYSCQVTHEGSTVEKTVAPTECS
chain 3: EVQLVESGGGLVQPGGSLRLSCAASGYSFTGYTMNWVRQAPGKGLEWVALINPYKGVSTYNQKFKDRFTISVDKSKNTAYLQMNSLRAEDTAVYYCARSGYYGDSDWYFDVWGQGTLVTVSSASVAAPSVFIFPPSDEQLKSGTASVVCLLNNFYPREAKVQWKVDNALQSGNSQESVTEQDSKDSTYSLSSTLTLSKADYEKHKVYACEVTHQGLSSPVTKSFNRGEC
B2: Molecule D, 1+1 CrossFab-IgG (VH/VL exchange in CD3 binder, CD3 binder V9, Robo 4 binder 7G2) (bispecific antibody)
chain 1: not shown
chain 2: EIVLTQSPGTLSLSPGERATLSCRASQSVSSSYLAWYQQKPGQAPRLLIYGASSRATGIPDRFSGSGSGTDFTLTISRLEPEDFAVYYCQQGQLPPRTFGQGTKVEIKRTVAAPSVFIFPPSDEQLKSGTASVVCLLNNFYPREAKVQWKVDNALQSGNSQESVTEQDSKDSTYSLSSTLTLSKADYEKHKVYACEVTHQGLSSPVTKSFNRGEC
chain 3: B1 chain 3
chain 4: DKTHTCPPCPAPEAAGGPSVFLFPPKPKDTLMISRTPEVTCVVVDVSHEDPEVKFNWYVDGVEVHNAKTKPREEQYNSTYRVVSVLTVLHQDWLNGKEYKCKVSNKALGAPIEKTISKAKGQPREPQVCTLPPSRDELTKNQVSLSCAVKGFYPSDIAVEWESNGQPENNYKTTPPVLDSDGSFFLVSKLTVDKSRWQQGNVFSCSVMHEALHNHYTQKSLSLSPGK
B3: Molecule H, 1+1 Fab-CrossFab (VH/VL exchange in CD3 binder, CD3 binder V9, Robo 4 binder 7G2) (bispecific antibody)
chain 1: not shown
chain 2: B2 chain 2
chain 3: B1 chain 3
B4: Molecule M, 2+1 CrossFab-IgG, inverted, with charge modifications (VH/VL exchange in CD3 binder, charge modification in Robo 4 binders, CD3 binder of SEQ ID … (bispecific antibody)
chain 1: QVQLKQSGAELVKPGASVKISCKTSVYTFTYGYMHWVEQKPGQGLEWIGRIDPDSGNSMYNQKFQGRATLTRDKSSSTVYMELRSLTSEDSAVYYCARSMRYSGYRDYALDLWGQGTQVTVSSASTKGPSVFPLAPSSKSTSGGTAALGCLVEDYFPEPVTVSWNSGALTSGVHTFPAVLQSSGLYSLSSVVTVPSSSLGTQTYICNVNHKPSNTKVDEKVEPKSCDKTHTCPPCPAPEAAGGPSVFLFPPKPKDTLMISRTPEVTCVVVDVSHEDPEVKFNWYVDGVEVHNAKTKPREEQYNSTYRVVSVLTVLHQDWLNGKEYKCKVSNKALGAPIEKTISKAKGQPREPQVCTLPPSRDELTKNQVSLSCAVKGFYPSDIAVEWESNGQPENNYKTTPPVLDSDGSFFLVSKLTVDKSRWQQGNVFSCSVMHEALHNHYTQKSLSLSP
chain 2: not shown
chain 3: EVQLLESGGGLVQPGGSLRLSCAASGFTFSTYAMNWVRQAPGKGLEWVSRIRSKYNNYATYYADSVKGRFTISRDDSKNTLYLQMNSLRAEDTAVYYCVRHGNFGNSYVSWFAYWGQGTLVTVSSASVAAPSVFIFPPSDEQLKSGTASVVCLLNNFYPREAKVQWKVDNALQSGNSQESVTEQDSKDSTYSLSSTLTLSKADYEKHKVYACEVTHQGLSSPVTKSFNRGEC
chain 4: B1 chain 2 with E127K, E128K
B5: Molecule A, 1+1 CrossFab-IgG (VH/VL exchange in CD3 binder, CD3 binder V9, Robo 4 binder 01F09) (bispecific antibody)
chain 1: not shown
chain 2: QPVLTQSPSASASLGASVKLTCTLNSQFSTYNIGWYQQHRDKPPKYVMFVKGDGGHSKADGIPDRFSGSSSGADRYLTISNIQAEDEAIYFCGADYNNAGQYGCVFGSGTHFTVLGQPKAAPSVTLFPPSSEELQANKATLVCLISDFYPGAVTVAWKADSSPVKAGVETTTPSKQSNNKYAASSYLSLTPEQWKSHRSYSCQVTHEGSTVEKTVAPTECS
chain 3: B1 chain 3
chain 4: B2 chain 4
B6: Molecule F, 2+1 CrossFab-IgG (VH/VL exchange in CD3 binder, CD3 binder V9, Robo 4 binders 01F05) (bispecific antibody)
chain 1: not shown
chain 2: QVQLKQSGAELVKPGASVKISCKTSVYTFTYGYMHWVEQKPGQGLEWIGRIDPDSGNSMYNQKFQGRATLTRDKSSSTVYMELRSLTSEDSAVYYCARSMRYSGYRDYALDLWGQGTQVTVSSASTKGPSVFPLAPSSKSTSGGTAALGCLVKDYFPEPVTVSWNSGALTSGVHTFPAVLQSSGLYSLSSVVTVPSSSLGTQTYICNVNHKPSNTKVDKKVEPKSCDKTHTCPPCPAPEAAGGPSVFLFPPKPKDTLMISRTPEVTCVVVDVSHEDPEVKFNWYVDGVEVHNAKTKPREEQYNSTYRVVSVLTVLHQDWLNGKEYKCKVSNKALGAPIEKTISKAKGQPREPQVCTLPPSRDELTKNQVSLSCAVKGFYPSDIAVEWESNGQPENNYKTTPPVLDSDGSFFLVSKLTVDKSRWQQGNVFSCSVMHEALHNHYTQKSLSLSPGK
chain 3: B1 chain 2
chain 4: B1 chain 3

Experiments:
Experiment in all cases: cell-based or functional assay
[1] = target: T1, full-length human Robo 4 (on cells)
[2] = target: T1, full-length human Robo 4 (on cells); remark: listed apart in the source
[3] = target: T1, full-length human Robo 4 (on cells); remark: listed apart in the source
[4] = target: T2, mouse Robo 4 on MS-1 mouse endothelial …

Binder | EC50 of T-cell mediated killing of HUVECs (LDH release, human PBMCs, E:T 10:1), 24 h [1] [nM] | EC50 of T-cell mediated killing of HUVECs (LDH release, human PBMCs, E:T 10:1), 48 h [1] [nM] | EC50 of T-cell mediated killing of HUVECs (LDH release, human pan T cells, E:T 5:1, 22 h) [2] [nM] | EC50 of T-cell mediated killing of HUVECs (LDH release, human PBMCs, E:T 10:1), 24 h [3] [nM] | EC50 of T-cell mediated killing of HUVECs (LDH release, human PBMCs, E:T 10:1), 48 h [3] [nM] | EC50 of T-cell mediated killing of MS-1 cells (LDH release, human PBMCs, E:T 10:1), 24 h [4] [nM] | EC50 of T-cell mediated killing of MS-1 cells (LDH release, human PBMCs, E:T 10:1), 48 h [4] [nM]
B1 | 0.372 | 0.236 |  |  |  |  | 
B2 |  |  | 3.14 |  |  |  | 
B3 |  |  | 2.76 |  |  |  | 
B4 |  |  |  | 0.173 | 0.125 | 0.275 | 0.119
B5 |  |  | 0.137 |  |  |  | 
B6 | 0.065 | 0.322 |  | 0.104 | 0.154 | ~0.164 | 0.196
